The text below walks through data of the supplement of paper PMC5998384.

Series [1] has as its system HeLa Kyoto. Kind of series: solubility change mitosis vs G1/S (difference of NP-40 vs SDS log2 ratios) (log2 ratio difference); higher = more soluble in mitosis.
Series [2] concerns HeLa Kyoto. Kind of series: melting temperature (median over replicates), in situ; higher = more thermally stable.
Series [3] concerns HeLa Kyoto. In words: thermal stability score vs G1/S (z-score of summed log2 fold changes over temperatures); higher = more thermally stable than in G1/S.
Series [4] deals with HeLa Kyoto. Kind of series: solubility in G1/S (NP-40 vs SDS abundance) (log2 ratio); higher = more soluble. The settings on record: cell cycle stage: G1/S.
[5] abbreviates: cell cycle stage: early G1 (4.5 h after nocodazole release).
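For melting temperature (median over replicates), in situ in this document: HeLa Kyoto cells synchronized by double thymidine or nocodazole block, proteins quantified by TMT10plex mass spectrometry, three independent biological replicates.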
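For solubility change mitosis vs G1/S (difference of NP-40 vs SDS log2 ratios) in this document: synchronized HeLa Kyoto cells (double thymidine block for G1/S, nocodazole release for mitosis), protein amounts in NP-40 versus SDS lysates quantified by mass spectrometry, three biological replicates.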
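For solubility in G1/S (NP-40 vs SDS abundance) in this document: HeLa Kyoto cells arrested at G1/S by double thymidine block, proteins quantified by TMT10plex mass spectrometry in mild NP-40 versus SDS extracts, three biological replicates.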
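For thermal stability score vs G1/S (z-score of summed log2 fold changes over temperatures) in this document: synchronized HeLa Kyoto cells, proteins quantified by TMT10plex mass spectrometry, three biological replicates, mitosis taken 0.5 h after nocodazole release, G1/S directly after double thymidine block.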

For “MKLLTRAGSFSRFYSLKVAPKVKATAAPAGAPPQPQDLEFTKLPNGLVIASLENYSPVSRIGLFIKAGSRYEDFSNLGTTHLLRLTSSLTTKGASSFKITRGIEAVGGKLSVTATRENMAYTVECLRGDVDILMEFLLNVTTAPEFRRWEVADLQPQLKIDKAVAFQNPQTHVIENLHAAAYRNALANPLYCPDYRIGKVTSEELHYFVQNHFTSARMALIGLGVSHPVLKQVAEQFLNMRGGLGLSGAKANYRGGEIREQNGDSLVHAAFVAESAVAGSAEANAFSVLQHVLGAGPHVKRGSNTTSHLHQAVAKATQQPFDVSAFNASYSDSGLFGIYTISQATAAGDVIKAAYNQVKTIAQGNLSNTDVQAAKNKLKAGYLMSVESSECFLEEVGSQALVAGSYMPPSTVLQQIDSVANADIINAAKKFVSGQKSMAASGNLGHTPFVDEL [UQCRC2]”, the “solubility change mitosis (log2)” value in series [1] is -0.00613. In addition, the figures for the melting temperature in series [2] (cell cycle stage: G1/S) and in series [2] (cell cycle stage: mitosis) were 55.8 °C and 54.7 °C, respectively. Besides, the thermal stability score in series [3] (setting [5]) was -1.64; in series [3] (cell cycle stage: mitosis), -4.8. In addition, in series [4], the “solubility in G1/S (log2)” value came out at 0.243.
Regarding “MKLSRQFTVFGSAIFCVVIFSLYLMLDRGHLDYPRNPRREGSFPQGQLSMLQEKIDHLERLLAENNEIISNIRDSVINLSESVEDGPKSSQSNFSQGAGSHLLPSQLSLSVDTADCLFASQSGSHNSDVQMLDVYSLISFDNPDGGVWKQGFDITYESNEWDTEPLQVFVVPHSHNDPGWLKTFNDYFRDKTQYIFNNMVLKLKEDSRRKFIWSEISYLSKWWDIIDIQKKDAVKSLIENGQLEIVTGGWVMPDEATPHYFALIDQLIEGHQWLENNIGVKPRSGWAIDPFGHSPTMAYLLNRAGLSHMLIQRVHYAVKKHFALHKTLEFFWRQNWDLGSVTDILCHMMPFYSYDIPHTCGPDPKICCQFDFKRLPGGRFGCPWGVPPETIHPGNVQSRARMLLDQYRKKSKLFRTKVLLAPLGDDFRYCEYTEWDLQFKNYQQLFDYMNSQSKFKVKIQFGTLSDFFDALDKADETQRDKGQSMFPVLSGDFFTYADRDDHYWSGYFTSRPFYKRMDRIMESHLRAAEILYYFALRQAHKYKINKFLSSSLYTALTEARRNLGLFQHHDAITGTAKDWVVVDYGTRLFHSLMVLEKIIGNSAFLLILKDKLTYDSYSPDTFLEMDLKQKSQDSLPQKNIIRLSAEPRYLVVYNPLEQDRISLVSVYVSSPTVQVFSASGKPVEVQVSAVWDTANTISETAYEISFRAHIPPLGLKVYKILESASSNSHLADYVLYKNKVEDSGIFTIKNMINTEEGITLENSFVLLRFDQTGLMKQMMTKEDGKHHEVNVQFSWYGTTIKRDKSGAYLFLPDGNAKPYVYTTPPFVRVTHGRIYSEVTCFFDHVTHRVRLYHIQGIEGQSVEVSNIVDIRKVYNREIAMKISSDIKSQNRFYTDLNGYQIQPRMTLSKLPLQANVYPMTTMAYIQDAKHRLTLLSAQSLGVSSLNSGQIEVIMDRRLMQDDNRGLEQGIQDNKITANLFRILLEKRSAVNTEEEKKSVSYPSLLSHITSSLMNHPVIPMANKFSSPTLELQGEFSPLQSSLPCDIHLVNLRTIQSKVGNGHSNEAALILHRKGFDCRFSSKGTGLFCSTTQGKILVQKLLNKFIVESLTPSSLSLMHSPPGTQNISEINLSPMEISTFRIQLR [MAN2A1]”, the “solubility change mitosis (log2)” value in series [1] was -0.156. Further, the melting temperature in series [2] (cell cycle stage: G1/S) and in series [2] (cell cycle stage: mitosis) was 54.8 °C each time. Moreover, the thermal stability score in series [3] (setting [5]) amounted to 2.95; in series [3] (cell cycle stage: mitosis), 3.08. Also, the “solubility in G1/S (log2)” value in series [4] was -0.0419.
For “MKMTVDFEECLKDSPRFRAALEEVEGDVAELELKLDKLVKLCIAMIDTGKAFCVANKQFMNGIRDLAQYSSNDAVVETSLTKFSDSLQEMINFHTILFDQTQRSIKAQLQNFVKEDLRKFKDAKKQFEKVSEEKENALVKNAQVQRNKQHEVEEATNILTATRKCFRHIALDYVLQINVLQSKRRSEILKSMLSFMYAHLAFFHQGYDLFSELGPYMKDLGAQLDRLVVDAAKEKREMEQKHSTIQQKDFSSDDSKLEYNVDAANGIVMEGYLFKRASNAFKTWNRRWFSIQNNQLVYQKKFKDNPTVVVEDLRLCTVKHCEDIERRFCFEVVSPTKSCMLQADSEKLRQAWIKAVQTSIATAYREKGDESEKLDKKSSPSTGSLDSGNESKEKLLKGESALQRVQCIPGNASCCDCGLADPRWASINLGITLCIECSGIHRSLGVHFSKVRSLTLDTWEPELLKLMCELGNDVINRVYEANVEKMGIKKPQPGQRQEKEAYIRAKYVERKFVDKYSISLSPPEQQKKFVSKSSEEKRLSISKFGPGDQVRASAQSSVRSNDSGIQQSSDDGRESLPSTVSANSLYEPEGERQDSSMFLDSKHLNPGLQLYRASYEKNLPKMAEALAHGADVNWANSEENKATPLIQAVLGGSLVTCEFLLQNGANVNQRDVQGRGPLHHATVLGHTGQVCLFLKRGANQHATDEEGKDPLSIAVEAANADIVTLLRLARMNEEMRESEGLYGQPGDETYQDIFRDFSQMASNNPEKLNRFQQDSQKF [ACAP2]”, the “solubility change mitosis (log2)” value in series [1] was -0.215. Further, the melting temperature in series [2] (cell cycle stage: G1/S) is 49.8 °C. The values for the thermal stability score in series [3] (setting [5]) and in series [3] (cell cycle stage: mitosis) were 0.348 and 0.369, respectively. The “solubility in G1/S (log2)” value in series [4] was -0.0242.
In the case of “MKNQDKKNGAAKQSNPKSSPGQPEAGPEGAQERPSQAAPAVEAEGPGSSQAPRKPEGAQARTAQSGALRDVSEELSRQLEDILSTYCVDNNQGGPGEDGAQGEPAEPEDAEKSRTYVARNGEPEPTPVVNGEKEPSKGDPNTEEIRQSDEVGDRDHRRPQEKKKAKGLGKEITLLMQTLNTLSTPEEKLAALCKKYAELLEEHRNSQKQMKLLQKKQSQLVQEKDHLRGEHSKAVLARSKLESLCRELQRHNRSLKEEGVQRAREEEEKRKEVTSHFQVTLNDIQLQMEQHNERNSKLRQENMELAERLKKLIEQYELREEHIDKVFKHKDLQQQLVDAKLQQAQEMLKEAEERHQREKDFLLKEAVESQRMCELMKQQETHLKQQLALYTEKFEEFQNTLSKSSEVFTTFKQEMEKMTKKIKKLEKETTMYRSRWESSNKALLEMAEEKTVRDKELEGLQVKIQRLEKLCRALQTERNDLNKRVQDLSAGGQGSLTDSGPERRPEGPGAQAPSSPRVTEAPCYPGAPSTEASGQTGPQEPTSARA [TXLNA]”, in series [1], the “solubility change mitosis (log2)” value was determined as 0.248. Further, the melting temperature in series [2] (cell cycle stage: G1/S) was determined as 52.5 °C; in series [2] (cell cycle stage: mitosis), 52.6 °C. Besides, the thermal stability score in series [3] (setting [5]) was 0.411; in series [3] (cell cycle stage: mitosis), -0.854. In addition, in series [4], the “solubility in G1/S (log2)” value is 0.802.
